Results taken from the RNAGym collection of RNA variant scans (doi:10.1073/pnas.2313332121).
Variants at the floor of the assay were thinned out.

B1: TPR 5TU (parent)
chain: GGAUCUUCUCGAUCUAACAAAAAAGACAAAUCUGCCACAAAGCUUGAGAGCAUCUUCGGAUGCAGAGGCGGCAGCCUUCGGUGGCGCGAUAGCGCCAACGUUCUCAACUAUGACACGCAAAACGCGUGCUCCGUUGAAUGGAGUUUAUCAUG

Variants of: B1
Test: polymerase ribozyme fitness, log enrichment relative to wild type (log ratio); higher = more active; in vitro selection for triplet polymerase activity
Summary of the method: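 Fitness measures genotype enrichment against wild-type enrichment on a logarithmic scale, with inverse-variance-weighted averaging of replicates. The logarithm is base 2, and genotypes were kept only with ≥10 input reads and ≥1 read per output in Illumina sequencing. The sequenced libraries came from one triplicate in vitro selection round, including frozen incubation at −7 °C, of PCR-built, transcribed mutant libraries of each subunit of a heterodimeric triplet polymerase ribozyme.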

GGUUCUUCUCGAUCUAACAAAAAAGACAAAUCUGCCACAAAGCUUGAGAGCAUCUUCGGAUGCAGAGGCAGCAGCCUUCGGUGGCGCGCUAGCGCCAACGUUCUCAACUAUGACACGCAAAACGCGUGCUCCGUUGAACGGAGAUUAUCAUG [A3U G70A A89C U139C U144A] and GGUUCUUCUCGAUCUAACAAAAAAGACAAAUCUGCCAAAAAGCUUGAGAGCAUCUUCGGAUGCAGAGGCGGCAGCCUUCGGUGGCGUGAUAGCGUCAACGUUCUCAACUAUGACACGCAAAACGCGUCCUCCGUUGAAUGGAGUUUAUCAUG [A3U C38A C87U C95U G128C] cannot be ordered by “polymerase ribozyme fitness (log ratio)” value: at most -4.2 for the first, at most -4.2 for the second.

GGUUCUUCUCGAUCUAACAAAAAAGACAAAUCUGCCACAAAGCUUAAGAUCAUCUACGGAUGCAGAGGCGGCAACCUUCGGUGUCGCGAUAGCGCCAACGUUCUCAACUAUGACACGCAAAACGCGUGCACCGUUGAAUGGAGCUUAUUAUG [A3U G46A G50U U56A G74A G84U U130A U144C C149U] and GGUUCUUCUCGAUCUAACAAAAAAGACAAAUCUGCCACAAAGCUUGAGAGCAUCUUCGGAUGCAGAGGCGGCAGCCUUCGGUGGUGCGAUAGCGCUAACGUUCUCAAGUAUGACACGCAAAACGCGUGCUCCGUUGAAUCGAGUUUAUCAUG [A3U C85U C96U C108G G140C] cannot be ordered by “polymerase ribozyme fitness (log ratio)” value: at most -4.2 for the first, at most -4.2 for the second.

Compared with GGUUCUUCUCGAUCUAACAAAAAAGACAAAUCUGCCACAAAGCUUGAGAGCAUCUUCGGAUGCAGAGGCGGCAGCCUUCUGUGGCGCGAUAGCUCCAACGUUCGCAAUUAUGACACGCAAAACGCCUGCUCCGUUGAAUGGAGUUUAACAUG [A3U G80U G94U U104G C108U G126C U148A], GGUUCUUCUCGAUCUAACAAAAAAGACAAAUCUGCCACAAAGCUUGAGAGCAUCUUCGGAUGCAGAGGCGGCAGCCUUCGGUGGAGCGAUAGCGCCAACGUUCUCAACUAUGACACGCAAAACGCGUGCUCCGUUGAAUGGAGUUUAUCAUG [A3U C85A] is higher in “polymerase ribozyme fitness (log ratio)” value: at most -4.2 for the first, -1.48 for the second.

Going from GGUUCUUCUCGAUCUAACAAAAAAGACAAAUCUGCCACAAAGCUUGAGAGCAUCUUCGUAUGCAGAGGCGGCAGCCUUCGGAGGCGCGAUAGAGCCAACGUUCUCAACUAUGACACGCAAAACGCGUGCUCCGUUGAAUGGCGUUUAUCAUG [A3U G59U U82A C93A A142C] to GGUUCUUCUCGAUCUAACAAAAAAGACAAAUCUGCCACAAAGCUUGAGAGUAUCUUCGGAUGCAGAGGCGGCAGCCUUCGGUGGCGCGAUAGCGUCAACGUUCUCAACUAUGACACGCAAAACGCGUGCUCCGUUGAAUGGAGUUUAUCAUG [A3U C51U C95U], the “polymerase ribozyme fitness (log ratio)” value rises from at most -4.2 to -1.09.

Compared with GGUUCUUCUCGAUCUAACAAAAAAGACAAAUCUGCCACAAAGCUUGAGAGCAUCUUCGGAUGCAGAGGCGGCAGCCUUCGGUGGCGGGAUAGCGCCAACGUUCUCAACUAUGCCACGCAAAACGCGUGCUCCGUUGAAUGGAGUUUAUCAUG [A3U C87G A113C], GGUUCUUCUCGAUCUAACAAAAAAGACAAAUCUGCCACAAAGCUUGAGAGCAUCUUCGGAUGCAGAGGCGGCAGCCUUCGGUGGCGCGAUAGGGCCAACGUUCUCAACUAUGACACGCAAAACGCGUGCUCCGUUGAAUGGAGUUUAUCAUG [A3U C93G] is higher in “polymerase ribozyme fitness (log ratio)” value: -4.19 for the first, -2.5 for the second.

Going from GGUUCUUCUCGAUCUAACAAAAAAGACAAAUCUGCCACAAAGCUUGAGAGCAUCUUCGGAUGCAGAGGCGGCAGCCUUCGGUGGCGCGAUAGAGCCAACGUUCUCAACUAUGACACGCAAAACGCGUGCUCCGUUGAAUGGAGUUUAUCAUG [A3U C93A] to GGUUCUUCUCGAUCUAACAAAAAAUAUAAAUCUGCAACAAAGCUUGAGAGCAUCUUCGGAUGCAGAGGCGGCAGCCUUCGGUGGCGUGAUAGCGCCAACGUUCUGAACUAUGACACGUAAAACGCGUGCUCCGUUGAAUGGAGUUUAUCAUC [A3U G25U C27U C36A C87U C105G C118U G152C], the “polymerase ribozyme fitness (log ratio)” value falls from -2.19 to at most -4.2.

GGUUCUUCUCGAUCUAACAAAAAAGACAAAUCUGCCACAAAGCUUGAAAGCAUCUUCGGAUGCAGAGGCGGCAGCCUUCGGUGGCGCGGUAGCGACAACGUGCUCAACUAUGACACGCAAAACGCGUGCUCCGUUGAAUGGAGUUUAUCAUG [A3U G48A A89G C95A U102G] and GGUUCUUCUCGAUCUAACAAAAAAGACAAAUCUGCCACAAAGCUUGAGAGCAUCUUCGGAUGCAGAGGCGGCAGCGUUCGGUGGCGCGUUAGUGCCAACAUUCUCAACUAUGACACGCAAAACGCGUGCUCCGUUGCAUGGAUAUUAUCAUG [A3U C76G A89U C93U G100A A137C G143U U144A] cannot be ordered by “polymerase ribozyme fitness (log ratio)” value: at most -4.2 for the first, at most -4.2 for the second.

Going from GGUUCUUCUCGAUCUAACAAAAAAGACAAAUCUGCCACAAAGCUUGAGAGUAUCUGCCAAUGCAGAGGCGGCGGCCUUCGGUGGCGCGAUAGCGCCAACGUUCUCAACUAUGACACGCAAAACGCGUGCUCCGUUGAAUGGAGUUUAUCAUG [A3U C51U U56G G58C G59A A73G] to GGUUCUUCUCGAUCUAACAAAAAAGACAAAUCUGCCACAAAGCUUGAGAGCAUCUUCGGAUGCAGAGGCGGCAGCCUUCGGUGGCGUGAUAGCGCCAACGUUCUCAACUAUGACACGCAAAACGCGUGCUCCGUUGAAUGGAGUUUAUCAUG [A3U C87U], the “polymerase ribozyme fitness (log ratio)” value rises from -3.64 to -0.956.

Compared with GGUUCUUCUCGAUCUAACAAAAAAGACAAAUCUGCCACAAAGCUUGAGAGCAUCUUCGGAUGCAGAGGCGGCAGCCUUCGGUGGCGGGAUAGCGCCAACGUUCUCAACUAUGACACGCAAAACGCGUGCUCCGUUGAAUGGAGUUUAUCAUG [A3U C87G], GGUUCUUCUCGAUCUAACAAAAAAGACAAAUCUGCCACAAAGCUUGAGAGCAUCUUCGGAUGCAGAGGCGGCAGCCUUCGGUGGCGCGAUAGCGCCAACGUUCUCAACUAUGAUACGGAAAACGCGUGCUCCGUUGCAUGCAGUUUAUCAUG [A3U C114U C118G A137C G141C] is lower in “polymerase ribozyme fitness (log ratio)” value: -3.94 for the first, at most -4.2 for the second.

For GGUUCUUCUCGAUCUAACAAAAAAGACAAAUCUGCCACAAAGCUUAAGAGCAUCUUCGGAUGCAGAGGCGGCAGCCUUCGGUGGCGCGAUAGCGCCAACGUUCUCAACUAUGUCACGCAAAACGCGUGCUCCGUUGAAUGGAGUUUAUCAUG [A3U G46A A113U], the “polymerase ribozyme fitness (log ratio)” value was -3.1.
